This sample holds only a part of the variants without activity.
B1: TPR 5TU (parent)
chain: GGAUCUUCUCGAUCUAACAAAAAAGACAAAUCUGCCACAAAGCUUGAGAGCAUCUUCGGAUGCAGAGGCGGCAGCCUUCGGUGGCGCGAUAGCGCCAACGUUCUCAACUAUGACACGCAAAACGCGUGCUCCGUUGAAUGGAGUUUAUCAUG

Variants of: B1
Assay: polymerase ribozyme fitness, log enrichment relative to wild type (log ratio); higher = more active; in vitro selection for triplet polymerase activity
Outline: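 Fitness is a logarithmic measure of how a genotype enriched relative to the wild type, with replicate averages weighted by inverse variance. The logarithm uses base 2, and enrichment came from Illumina sequencing of input and output libraries. Those libraries were PCR-built, transcribed mutants of each subunit of a heterodimeric triplet polymerase ribozyme, passed through one triplicate in vitro selection round that included frozen incubation at −7 °C, gel excision of extended constructs and streptavidin-bead capture. Genotypes were kept only if they had ≥10 input reads and ≥1 read per output.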

Variant | polymerase ribozyme fitness (log ratio)
A41U A47U C93G | -4.14
A39G C103G U144A | ≤ -4.2
A39G C96U C125A | -2.58
A40U C85U | -0.107
A41C U101G | -0.344
A40U C76U | -0.102
A41U G136A | 0.0389
A41C G143C | -2.56
A41C G143A | -1.42
A41C G50A G86A A98G | -3.62
A40C A52C G81A G83A C93G | ≤ -4.2
A40U U56A C85G C114G | -3.79
A40C C99U | 0.519
A40C U134G A142G U145A | -3.46
A39U U53A U56C A60C U61A G86U A89G | -4.17
A40U A120U G133C | -1.72
A40C U109C | -3.47
G42A G71A A91U A97U G100C | ≤ -4.2
A39G C87A C108U U135C | ≤ -4.2
A39U U144C | -2.52
A39U A47G U139G U151G | ≤ -4.2
A39G U55A C75G C87U A89U C99U C116U A142U | ≤ -4.2
A40U G92U A98C C103G A120C U134A | -3.87
A39G A41C | -1.44

Variant | polymerase ribozyme fitness (log ratio)
A40G C54G G126A | -3.46
A41C U135C | -3.55
A39U C43U U61A U135G G136A | ≤ -4.2
A41G C57A G59A G68U | ≤ -4.2
A41U C85G G126A | -2.76
A41C A91G C118G | -3.64
A41U G58A A147U | 0.803
A40U U55G C96G | -0.541
A41U U145A | -0.141
A41G C57U C85U C116U | 0.221
A40C U55G G59C C75A U82G C96G U111G U148A A150C | ≤ -4.2
A41C A49C C75A C95A | ≤ -4.2
A41C C76U G81A A110C | ≤ -4.2
A40U C75U C95U A98U G140A | -3.39
A40U U109A | -1.86
A40G U56A G67A G83A | ≤ -4.2
A39U C99A | -3.7
A39G G84U U127A | ≤ -4.2
A41C G59A G86U | -2.6
A40G A49G | -3.58
A39G G42C A64U G84C C85U C103G C108U G117C A147G | ≤ -4.2
A40C A98G U146G G152C | ≤ -4.2
A41U A66C G67A C79G C96U A150U | ≤ -4.2
G42A G83U A97U | ≤ -4.2

Variant | polymerase ribozyme fitness (log ratio)
A39G C54U C85U | -1.83
A40U G94A G126A | -0.19
A41C C43A A60G | ≤ -4.2
A40C A137G | -1.42
A41C A142G U144C G152A | -3.09
A41G G88U | -3.82
A40C G67C G71C A98G C103A C105G | ≤ -4.2
A41C U127G G136U G141U | ≤ -4.2
A40C A49G U55A G80A C85U G140C | ≤ -4.2
A39G C96U | -2.18
A41G U55G G59A U145A | -0.554
G42C A52C A64G G80A C96A C108U A110G | ≤ -4.2
A39U U55G G58U U78G C85U U90C C105A G136U A142C | ≤ -4.2
G42A A47C U77G G92U | ≤ -4.2
A40C G128U G143U | ≤ -4.2
A41C G86U C123U | -2.13
A41U U111A | -3.7
G42A U56A G67U G94A | ≤ -4.2
A41C C125G | -0.815
A40U U55A G58C C85G A119U | -2.59
A41C C76A G84A A120C | -2.53
G42A G48A A97G A138U | ≤ -4.2
A39U U101G | -2.05
A41C G46A C57U C95U A115G | -3.25

Variant | polymerase ribozyme fitness (log ratio)
A40G A41U U53A C123A C125U U134G | -3.73
A40G U56A G59U G68A C95A U135A A150U | ≤ -4.2
A40U A47C C51U U82C C118G | -2.44
A39U U53A G86U | -3.7
A40U G71U C85G | ≤ -4.2
A41U U82C C87U C125G G126C U144G | -2.6
A40U C95U C129A U134C | -3.65
A41U A49C C96G A113G U135C C149U | ≤ -4.2
A40U U82A C95G | -1.43
A41C C96A U146A | -0.97
A41U C95U A98C | -1.48
A40G C85G A89G | ≤ -4.2
A39U A40C C79A U82C C96A U109G A119U G143A | ≤ -4.2
A40U U61A A122G | -1.1
A41C C51U | -0.722
A39G A49U U55A U56A A91U | ≤ -4.2
A41U C105G | -1.73
A40C G84A G94A C131U U139A | -4.09
A40C U61A C76A | ≤ -4.2
A41U G84C C103G | ≤ -4.2
A40U G141U | 0.96
A40C C85A U102G G143A | ≤ -4.2
A41U G80A A97U | -1.76
A40U U130A | -3.96

Variant | polymerase ribozyme fitness (log ratio)
G42A A52C | -3.82
A40U A60C C72U G84U | -2.77
A39G G48A U56A C76A C79U C105U | ≤ -4.2
G42A G58C C79A C118U A142U | ≤ -4.2
A40C U55G C85U | 0.238
A41G C87A A121G C123U G140A U146C C149G | ≤ -4.2
A41C A52G G86U | -2.67
A39U A52G C79G G84C C108U | ≤ -4.2
A40U G92C A147C | -0.761
A40C C57U | 0.521
A40U G70C C79G A106G U135C U145G A150C | ≤ -4.2
A40U A64G C93A A98G A107C U130G | ≤ -4.2
A40C U61A A91G A97U G141U | ≤ -4.2
A41C A47C A60U | -2.01
A41U U144G | 0.164
A40U C51U G83A | -0.935
A39U A60U G70A | ≤ -4.2
A40C C75A C114G | ≤ -4.2
A39U G126C | -0.865
A41C A49C C75U C85A C105A A137U A142C G143U | ≤ -4.2
A39G C99G C108U | ≤ -4.2
A40U C79G G88U A107G C149A | ≤ -4.2
A40C G59C C63A G65U C87A C95U C125A G126U | ≤ -4.2
G42A U56A C95U U111G | -4

Variant | polymerase ribozyme fitness (log ratio)
A41U A52G A107U G140U C149A | ≤ -4.2
A40U G92A A120C | -2.75
A40G A97G | -1.8
A41U C114A | -4.16
A40C C96U A150G | -1.3
A41C U55A C93A | -3.32
A40U G83C C96A G152A | -3.95
A39U C93U | -3.36
A40U C57G A91U A138U | ≤ -4.2
A40U G92A A120U C132A G141C | ≤ -4.2
A39G A52U U56A C75U U78G U104A U144C | ≤ -4.2
G42A U53A U77G A91U A115G U135G | ≤ -4.2
A39U U61A A64C G86C | ≤ -4.2
A41U G88A C95G A106C A120G | ≤ -4.2
A40G G58C G94A G141A | -3.65
A39G U55C U56A C116U U139G U144G | -2.27
A41C G67C G83A C95G G143A | ≤ -4.2
A40U A41U G46A C57A C87A G92U | 0.0643
A41C U144C A147U | -0.619
A40U G152U | -3.71
A39G A49G G70A C87A G94A C99G G126A | ≤ -4.2
A41G U45A C54G G92U | -2.74
A39U A52G U61A A73U A115U A150C | ≤ -4.2
A40C G59A G71U G94C U127C | ≤ -4.2

Variant | polymerase ribozyme fitness (log ratio)
A40C C69G C75U A98U U135G U151G | ≤ -4.2
A40G U55G U56A G88C | ≤ -4.2
A39G A47C C72A C103G C116U G128A | ≤ -4.2
A41U A60U U144G | -0.464
G42A G100U | ≤ -4.2
G42A A47C C85G C96G C116A A147U | ≤ -4.2
A40U G86U C93U C149U | -3.56
A41G C85A U130G G143U A147G | ≤ -4.2
A40C C76U | 0.0931
A41U C51G G58U U61A G68A C96A A97C U102C | ≤ -4.2
A39U A91U | ≤ -4.2
A40C C93U | 0.422
A40C U55G G84C C96U C103U C118U | -3.51
A41C A47G | -0.27
A39U A49C U55A C87U C116G | ≤ -4.2
A40C G50U C85U | 0.316
A41C A47C G88U A97U | -4.03
A40U U56A | -0.0589
A41G G50C C93G C103U C123A U127C | ≤ -4.2
A41C C93U C123U | -1.59
A39U G80A C123G | -2.65
A39U U44G U109C | ≤ -4.2
A41C C76U G84U | -2.96

Source: the RNAGym collection of RNA variant scans (doi:10.1073/pnas.2313332121)
